Test results taken from patent US20080026998 (published 2008).
Like-named read-outs stand apart in the source and are kept apart here.

T1: plasmin (human, UniProt P00747)
T1 chain: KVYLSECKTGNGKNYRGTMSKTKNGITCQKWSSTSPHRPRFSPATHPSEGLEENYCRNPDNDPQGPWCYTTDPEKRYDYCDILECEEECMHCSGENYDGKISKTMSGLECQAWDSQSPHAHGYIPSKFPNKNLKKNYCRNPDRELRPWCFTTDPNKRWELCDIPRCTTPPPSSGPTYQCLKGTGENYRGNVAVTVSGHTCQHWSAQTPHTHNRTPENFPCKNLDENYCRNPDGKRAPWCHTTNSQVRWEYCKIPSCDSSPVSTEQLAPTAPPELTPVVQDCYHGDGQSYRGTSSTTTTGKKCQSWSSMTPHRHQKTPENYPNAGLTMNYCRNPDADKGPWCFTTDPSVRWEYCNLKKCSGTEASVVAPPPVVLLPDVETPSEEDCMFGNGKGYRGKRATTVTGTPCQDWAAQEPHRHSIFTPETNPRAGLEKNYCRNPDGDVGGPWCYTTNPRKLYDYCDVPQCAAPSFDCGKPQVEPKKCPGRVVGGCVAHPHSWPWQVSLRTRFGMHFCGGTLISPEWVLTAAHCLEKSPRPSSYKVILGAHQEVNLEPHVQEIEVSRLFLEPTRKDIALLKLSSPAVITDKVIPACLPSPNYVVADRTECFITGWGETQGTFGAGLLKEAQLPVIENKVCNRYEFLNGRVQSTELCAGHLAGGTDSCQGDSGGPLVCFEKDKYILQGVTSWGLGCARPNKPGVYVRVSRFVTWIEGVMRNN


Columns and labels:
plasmin [1] = target: T1, plasmin
plasmin [2] = target: T1, plasmin
plasmin [3] = target: T1, plasmin
plasmin [4] = target: T1, plasmin
plasmin [5] = target: T1, plasmin

| Ki (plasmin [1]) | Ki (plasmin [2]) | Ki (plasmin [3]) | Ki (plasmin [4]) | Ki (plasmin [5]) | Binder |
| --- | --- | --- | --- | --- | --- |
| 6.4 nM | 9.7 nM | 7.5 nM | 5.3 nM | – | KD1 wild-type (protein) DAAQEPTGNNAEICLLPLDYGPCRALLLRYYYDRYTQSCRQFLYGGCEGNANNFYTWEACDDACWRIEKVPKV |
| 1.25 nM | 1.06 nM | 1.5 nM | 0.625 nM | 2.2 nM | KD1 R24K/L26R (protein) DAAQEPTGNNAEICLLPLDYGPCKARLLRYYYDRYTQSCRQFLYGGCEGNANNFYTWEACDDACWRIEKVPKV |
| 1.02 nM | 1.33 nM | 4.6 nM | 1.1 nM | – | KD1 R24K (protein) DAAQEPTGNNAEICLLPLDYGPCKALLLRYYYDRYTQSCRQFLYGGCEGNANNFYTWEACDDACWRIEKVPKV |
